Experimental data: publication PMC4979064, “Crystal structure of the plant receptor-like kinase TDR in complex with the TDIF peptide” (Nature Communications, 2016)
Square brackets hold non-standard residues; d marks the D form. Ends that are not written are not given here. Hyp = O=C(O)[C@@H]1C[C@@H](O)CN1; Ahx = NCCCCCC(=O)O

T1: lysine methylated C259A/C540S TDR mutant, extracellular domain (residues 31–631) (Arabidopsis thaliana, UniProt Q9FII5 31-631, C259A | C540S, lysine residues methylated; digested with Endo H (deglycosylated))
T1 construct: TDR/PXY, Arabidopsis thaliana, extracellular LRR domain, residues 31-631, with C259A/C540S; also called lysine methylated C259A/C540S mutant; methylated TDR protein; not shown: 10xHis (after an HRV3C protease site), C-terminal, cleaved
T1 sequence (looked up): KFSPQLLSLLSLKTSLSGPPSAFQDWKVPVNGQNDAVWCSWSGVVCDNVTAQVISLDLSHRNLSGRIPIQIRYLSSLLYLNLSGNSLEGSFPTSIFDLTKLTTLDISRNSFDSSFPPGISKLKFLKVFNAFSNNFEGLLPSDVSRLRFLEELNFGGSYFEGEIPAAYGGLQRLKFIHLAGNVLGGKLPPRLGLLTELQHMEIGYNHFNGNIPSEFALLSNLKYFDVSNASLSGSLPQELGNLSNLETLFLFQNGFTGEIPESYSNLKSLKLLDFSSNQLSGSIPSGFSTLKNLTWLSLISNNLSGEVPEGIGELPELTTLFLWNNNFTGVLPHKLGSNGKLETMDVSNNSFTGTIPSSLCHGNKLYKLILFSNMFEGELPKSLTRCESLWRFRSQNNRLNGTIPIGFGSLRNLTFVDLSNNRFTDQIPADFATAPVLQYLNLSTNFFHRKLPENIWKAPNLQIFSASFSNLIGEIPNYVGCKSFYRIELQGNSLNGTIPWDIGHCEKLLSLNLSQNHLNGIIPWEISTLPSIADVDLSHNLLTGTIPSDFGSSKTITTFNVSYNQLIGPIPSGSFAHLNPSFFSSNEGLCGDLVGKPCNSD

T2: C259A/C540S TDR mutant, extracellular domain (residues 31–631), as in the pull-down of Fig. 2e (Arabidopsis thaliana, UniProt Q9FII5 31-631, C259A | C540S)
T2 construct: TDR/PXY, Arabidopsis thaliana, extracellular LRR domain, residues 31-631, with C259A/C540S; it may be the same preparation as m2; also called C259A/C540S mutant; TDR C259A/C540S mutant; source: Sf9 insect cells (baculovirus), purified
T2 sequence (looked up): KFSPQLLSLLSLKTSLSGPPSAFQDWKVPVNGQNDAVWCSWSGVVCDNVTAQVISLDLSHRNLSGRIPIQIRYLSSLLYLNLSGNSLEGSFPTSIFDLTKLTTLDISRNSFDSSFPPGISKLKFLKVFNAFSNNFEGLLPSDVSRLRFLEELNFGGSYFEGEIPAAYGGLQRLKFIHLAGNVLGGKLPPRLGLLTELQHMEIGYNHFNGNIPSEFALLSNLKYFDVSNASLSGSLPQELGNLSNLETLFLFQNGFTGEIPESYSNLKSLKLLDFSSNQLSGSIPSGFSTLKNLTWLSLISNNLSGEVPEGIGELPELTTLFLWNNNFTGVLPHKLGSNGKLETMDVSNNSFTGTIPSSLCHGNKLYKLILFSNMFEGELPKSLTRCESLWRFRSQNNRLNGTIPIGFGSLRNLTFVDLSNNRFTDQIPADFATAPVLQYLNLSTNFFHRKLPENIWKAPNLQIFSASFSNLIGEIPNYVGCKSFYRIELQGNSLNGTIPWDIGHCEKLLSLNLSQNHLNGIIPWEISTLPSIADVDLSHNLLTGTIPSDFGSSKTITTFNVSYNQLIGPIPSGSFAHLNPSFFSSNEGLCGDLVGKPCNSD

T3: TDR F161A mutant (in the C259A/C540S extracellular domain, residues 31–631) (Arabidopsis thaliana, UniProt Q9FII5 31-631, C259A | C540S | F161A)
T3 construct: TDR/PXY, Arabidopsis thaliana, extracellular LRR domain, residues 31-631, C259A/C540S background with F161A; source: Sf9 insect cells (baculovirus), purified (Ni Sepharose excel)
T3 sequence (looked up): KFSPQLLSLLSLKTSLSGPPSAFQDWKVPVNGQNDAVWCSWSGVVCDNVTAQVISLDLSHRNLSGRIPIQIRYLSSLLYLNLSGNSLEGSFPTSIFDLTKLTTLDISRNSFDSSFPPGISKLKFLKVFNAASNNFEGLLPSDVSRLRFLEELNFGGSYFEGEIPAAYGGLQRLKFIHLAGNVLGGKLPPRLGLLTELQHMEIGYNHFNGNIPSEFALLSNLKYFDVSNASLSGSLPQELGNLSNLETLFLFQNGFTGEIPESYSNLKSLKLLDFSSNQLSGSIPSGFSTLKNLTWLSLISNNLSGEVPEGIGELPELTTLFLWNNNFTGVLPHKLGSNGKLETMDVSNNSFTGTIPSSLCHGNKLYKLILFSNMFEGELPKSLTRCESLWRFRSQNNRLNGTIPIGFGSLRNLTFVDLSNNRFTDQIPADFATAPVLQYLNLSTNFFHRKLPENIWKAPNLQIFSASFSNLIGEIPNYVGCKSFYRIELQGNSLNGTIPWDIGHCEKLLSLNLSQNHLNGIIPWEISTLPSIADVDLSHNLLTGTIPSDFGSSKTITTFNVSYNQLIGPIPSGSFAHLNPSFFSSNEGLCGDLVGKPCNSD

T4: TDR R423A mutant (in the C259A/C540S extracellular domain, residues 31–631) (Arabidopsis thaliana, UniProt Q9FII5 31-631, C259A | C540S | R423A)
T4 construct: TDR/PXY, Arabidopsis thaliana, extracellular LRR domain, residues 31-631, C259A/C540S background with R423A; source: Sf9 insect cells (baculovirus), purified (Ni Sepharose excel)
T4 sequence (looked up): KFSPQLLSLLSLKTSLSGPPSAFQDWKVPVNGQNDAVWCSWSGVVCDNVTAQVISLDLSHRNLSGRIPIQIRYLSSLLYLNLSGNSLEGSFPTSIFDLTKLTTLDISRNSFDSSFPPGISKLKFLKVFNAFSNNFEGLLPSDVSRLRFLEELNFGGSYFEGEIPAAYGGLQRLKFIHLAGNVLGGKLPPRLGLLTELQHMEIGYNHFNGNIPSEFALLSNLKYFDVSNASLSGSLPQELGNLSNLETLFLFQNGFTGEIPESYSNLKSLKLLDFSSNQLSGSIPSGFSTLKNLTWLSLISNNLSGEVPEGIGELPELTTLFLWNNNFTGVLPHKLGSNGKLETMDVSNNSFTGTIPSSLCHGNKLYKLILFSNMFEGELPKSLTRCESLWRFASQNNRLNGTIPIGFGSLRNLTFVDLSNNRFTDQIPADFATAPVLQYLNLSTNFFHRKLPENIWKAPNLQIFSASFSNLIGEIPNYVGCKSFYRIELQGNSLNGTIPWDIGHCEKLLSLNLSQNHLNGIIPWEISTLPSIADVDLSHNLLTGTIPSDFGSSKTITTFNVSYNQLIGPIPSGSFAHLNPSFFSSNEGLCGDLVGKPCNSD

T5: TDR R421A mutant (in the C259A/C540S extracellular domain, residues 31–631) (Arabidopsis thaliana, UniProt Q9FII5 31-631, C259A | C540S | R421A)
T5 construct: TDR/PXY, Arabidopsis thaliana, extracellular LRR domain, residues 31-631, C259A/C540S background with R421A; source: Sf9 insect cells (baculovirus), purified (Ni Sepharose excel)
T5 sequence (looked up): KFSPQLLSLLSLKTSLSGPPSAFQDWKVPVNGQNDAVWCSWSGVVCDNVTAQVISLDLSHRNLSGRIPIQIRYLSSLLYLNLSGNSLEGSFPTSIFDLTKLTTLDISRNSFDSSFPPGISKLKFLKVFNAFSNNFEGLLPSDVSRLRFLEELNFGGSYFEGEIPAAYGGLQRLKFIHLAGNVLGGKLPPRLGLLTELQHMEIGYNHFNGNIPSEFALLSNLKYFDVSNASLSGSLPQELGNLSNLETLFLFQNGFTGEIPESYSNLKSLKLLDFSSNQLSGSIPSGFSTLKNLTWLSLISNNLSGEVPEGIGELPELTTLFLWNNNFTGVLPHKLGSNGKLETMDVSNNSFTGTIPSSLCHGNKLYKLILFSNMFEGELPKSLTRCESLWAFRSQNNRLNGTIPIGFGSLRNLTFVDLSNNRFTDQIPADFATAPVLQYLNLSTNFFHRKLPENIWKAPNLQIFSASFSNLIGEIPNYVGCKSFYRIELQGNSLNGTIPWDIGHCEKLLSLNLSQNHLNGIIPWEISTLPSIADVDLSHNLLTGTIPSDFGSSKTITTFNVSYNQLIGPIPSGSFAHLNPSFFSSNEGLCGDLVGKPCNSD

T6: extracellular domain (residues 31–631) of TDR from A. thaliana, wild type (Arabidopsis thaliana, UniProt Q9FII5 31-631)
T6 construct: TDR/PXY (TDIF receptor/phloem intercalated with xylem), LRR receptor-like kinase, Arabidopsis thaliana, extracellular LRR domain, residues 31-631; The purification told in the methods cleaves the His tag with HRV3C protease; also called wild-type TDR; TDIF receptor; source: Sf9 insect cells (baculovirus), secreted into the culture supernatant, purified
T6 sequence (looked up): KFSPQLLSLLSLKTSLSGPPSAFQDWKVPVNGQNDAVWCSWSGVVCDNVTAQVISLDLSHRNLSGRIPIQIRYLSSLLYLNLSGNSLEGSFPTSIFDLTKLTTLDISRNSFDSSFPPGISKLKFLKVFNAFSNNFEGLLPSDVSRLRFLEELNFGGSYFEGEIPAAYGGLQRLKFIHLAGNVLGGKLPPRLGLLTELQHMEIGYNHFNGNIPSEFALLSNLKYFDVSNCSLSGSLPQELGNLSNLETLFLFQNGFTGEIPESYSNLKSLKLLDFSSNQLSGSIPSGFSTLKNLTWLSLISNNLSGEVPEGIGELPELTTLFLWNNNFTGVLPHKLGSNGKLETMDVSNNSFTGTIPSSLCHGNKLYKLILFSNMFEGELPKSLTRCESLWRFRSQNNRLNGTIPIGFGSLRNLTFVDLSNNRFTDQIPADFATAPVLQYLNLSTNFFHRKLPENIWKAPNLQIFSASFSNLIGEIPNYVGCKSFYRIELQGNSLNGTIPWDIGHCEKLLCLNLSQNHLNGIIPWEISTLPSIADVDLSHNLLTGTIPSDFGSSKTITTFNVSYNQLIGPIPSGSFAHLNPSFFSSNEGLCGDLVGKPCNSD

T7: TDR S162A mutant (in the C259A/C540S extracellular domain, residues 31–631) (Arabidopsis thaliana, UniProt Q9FII5 31-631, C259A | C540S | S162A)
T7 construct: TDR/PXY, Arabidopsis thaliana, extracellular LRR domain, residues 31-631, C259A/C540S background with S162A; source: Sf9 insect cells (baculovirus), purified (Ni Sepharose excel)
T7 sequence (looked up): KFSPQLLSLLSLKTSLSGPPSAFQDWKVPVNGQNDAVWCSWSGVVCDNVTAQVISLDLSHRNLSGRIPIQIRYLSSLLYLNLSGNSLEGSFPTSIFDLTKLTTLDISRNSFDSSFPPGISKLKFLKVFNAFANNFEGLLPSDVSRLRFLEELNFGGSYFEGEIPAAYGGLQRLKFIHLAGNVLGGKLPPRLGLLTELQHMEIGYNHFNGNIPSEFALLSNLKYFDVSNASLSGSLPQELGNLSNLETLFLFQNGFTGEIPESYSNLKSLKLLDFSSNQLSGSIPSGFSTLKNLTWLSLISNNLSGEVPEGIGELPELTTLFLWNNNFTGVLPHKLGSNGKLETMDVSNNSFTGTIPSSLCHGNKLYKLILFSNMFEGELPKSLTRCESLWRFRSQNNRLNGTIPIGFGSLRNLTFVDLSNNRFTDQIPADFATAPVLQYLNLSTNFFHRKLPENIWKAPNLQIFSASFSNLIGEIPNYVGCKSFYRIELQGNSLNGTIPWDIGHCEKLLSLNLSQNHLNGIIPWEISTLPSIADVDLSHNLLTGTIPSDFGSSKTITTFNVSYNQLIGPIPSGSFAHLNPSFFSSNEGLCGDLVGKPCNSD


Tests used:
Conditions in all cases: both partners purified
[1] = target: T1, lysine methylated C259A/C540S TDR …; assay: crystal structure; TDR and TDIF mixed at a molar ratio of 1:1.5, vapour diffusion at 20 °C, 4 M sodium nitrate, 0.1 M sodium acetate pH 4.8, 200 mM ammonium sulfate; 3.0 Å, molecular replacement
[2] = target: T2, C259A/C540S TDR mutant, extracellular …; assay: pull-down; biotinylated TDIF (2 ug) held on Dynabeads M-280 Streptavidin; purified TDR protein added with 0.1 mg/ml BSA, 4 °C, 2 h; wash buffer 20 mM Tris-HCl pH 7.5, 150 mM NaCl; bound protein eluted in SDS sample buffer, SDS-PAGE
[3] = target: T3, TDR F161A mutant (in the C259A/C540S …); assay: as above
[4] = target: T1, lysine methylated C259A/C540S TDR …; assay: as above
[5] = target: T4, TDR R423A mutant (in the C259A/C540S …); assay: as above
[6] = target: T5, TDR R421A mutant (in the C259A/C540S …); assay: as above
[7] = target: T6, extracellular domain (residues 31–631) …; assay: as above
[8] = target: T7, TDR S162A mutant (in the C259A/C540S …); assay: as above

Row | binding result [1] | binding result [2] | binding result [3] | binding result [4] | binding result [5] | binding result [6] | binding result [7] | binding result [8] | Binder
1 | binds |  |  |  |  |  |  |  | HEV[Hyp]SG[Hyp]NPISN (TDIF, 12-residue CLE family peptide with two hydroxyprolines (written P at 4 and 7), encoded by the CLE41 and CLE44 genes in Arabidopsis; the processed peptide from the C-terminus of the precursor; The same peptide is also encoded by CLE44; also called synthesized TDIF peptide; source: synthetic peptide (Eurofins Genomics)) [Tracheary element differentiation factor (TDIF) peptide, HEV(Hyp)SG(Hyp)NPISN]
2 |  | binds | binds | binds | binds | binds | binds | binds | HEV[Hyp]SG[Hyp]NPISNGSGS-{Ahx-biotin} (TDIF, 12-residue CLE family peptide with two hydroxyprolines (written P at 4 and 7), encoded by the CLE41 and CLE44 genes in Arabidopsis; linker before (Ahx)-Biotin; also called biotinylated TDIF peptides; source: synthetic peptide (Eurofins Genomics); not shown: Biotin, C-terminal, kept) [biotinylated TDIF peptide, HEV(Hyp)SG(Hyp)NPISN-GSGS-(Ahx)-Biotin]
